Where a chain is given by its changes, count along the chain named. Names may count otherwise.
T1: human neutrophil elastase (Homo sapiens, UniProt P08246)
T1 sequence (P08246 30-267): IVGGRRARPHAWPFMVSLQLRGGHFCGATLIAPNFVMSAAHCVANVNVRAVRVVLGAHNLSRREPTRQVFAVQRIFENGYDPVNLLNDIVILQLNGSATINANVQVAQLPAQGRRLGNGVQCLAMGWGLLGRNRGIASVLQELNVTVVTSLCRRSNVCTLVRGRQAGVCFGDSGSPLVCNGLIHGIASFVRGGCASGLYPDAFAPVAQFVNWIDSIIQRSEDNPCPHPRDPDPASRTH

B1: CBG-T349R: Human CBG with P1 threonine of reactive centre loop mutated to arginine (protein, UniProt P08185 23-405, looked up, variant T349R)
Corticosteroid-binding …: MDPNAAYVNMSNHHRGLASANVDFAFSLYKHLVALSPKKNIFISPVSISMALAMLSLGTCGHTRAQLLQGLGFNLTERSETEIHQGFQHLHQLFAKSDTSLEMTMGNALFLDGSLELLESFSADIKHYYESEVLAMNFQDWATASRQINSYVKNKTQGKIVDLFSGLDSPAILVLVNYIFFKGTWTQPFDLASTREENFYVDETTVVKVPMMLQSSTISYLHDSELPCQLVQMNYVGNGTVFFILPDKGKMNTVIAALSRDTINRWSAGLTSSQVDLYIPKVTISGVYDLGDVLEEMGIADLFTNQANFSRITQDAQLKSSKVVHKAVLQLNEEGVDTAGSTGVTLNLRSKPIILRFNQPFIIMIFDHFTWSSLFLARVMNPV
B2: wild-type: Recombinant wild type human corticosteroid binding globulin expressed in E. coli (protein, UniProt P08185 23-405, looked up)
Corticosteroid-binding …: B1 Corticosteroid-binding … with R349T
modifications: expressed in E. coli
B3: CBG-Trp371Ala: Human CBG with binding pocket Trp 371 mutated to alanine (protein, UniProt P08185 23-405, looked up, variant W371A)
Corticosteroid-binding …: B1 Corticosteroid-binding … with R349T, W371A
B4: CBG-Trp371Arg: Human CBG with binding pocket Trp 371 mutated to arginine (protein, UniProt P08185 23-405, looked up, variant W371R)
Corticosteroid-binding …: B1 Corticosteroid-binding … with R349T, W371R
B5: TBG: Thyroxine binding globulin, hormone-carrying serpin, comparator (protein, UniProt P05543 21-415, looked up)
Thyroxine-binding globulin: ASPEGKVTACHSSQPNATLYKMSSINADFAFNLYRRFTVETPDKNIFFSPVSISAALVMLSFGACCSTQTEIVETLGFNLTDTPMVEIQHGFQHLICSLNFPKKELELQIGNALFIGKHLKPLAKFLNDVKTLYETEVFSTDFSNISAAKQEINSHVEMQTKGKVVGLIQDLKPNTIMVLVNYIHFKAQWANPFDPSKTEDSSSFLIDKTTTVQVPMMHQMEQYYHLVDMELNCTVLQMDYSKNALALFVLPKEGQMESVEAAMSSKTLKKWNRLLQKGWVDLFVPKFSISATYDLGATLLKMGIQHAYSENADFSGLTEDNGLKLSNAAHKAVLHIGEKGTEAAAVPEVELSDQPENTFLHPIIQIDRSFMLLILERSTRSILFLGKVVNPTEA
B6: P1-Arg + V336L: Human CBG with P14 Val336Leu on T349R (P1 Arg) background, thrombin-cleavable (protein, UniProt P08185 23-405, looked up, variant V336L T349R)
Corticosteroid-binding …: B1 Corticosteroid-binding … with V336L
B7: P1-Arg + V336I: Human CBG with P14 Val336Ile on T349R (P1 Arg) background, thrombin-cleavable (protein, UniProt P08185 23-405, looked up, variant V336I T349R)
Corticosteroid-binding …: B1 Corticosteroid-binding … with V336I
B8: P1-Arg + S100C-V236C: Human CBG with Ser100Cys/Val236Cys disulphide mutations on T349R background (PDB 4C41, cleaved) (protein, UniProt P08185 23-405, looked up, variant S100C V236C T349R)
Corticosteroid-binding …: B1 Corticosteroid-binding … with S100C, V236C
B9: P1-Arg + S100C-V236C-V336I: Human CBG combining S100C-V236C disulphide and V336I on T349R background (protein, UniProt P08185 23-405, looked up, variant S100C V236C V336I T349R)
Corticosteroid-binding …: B1 Corticosteroid-binding … with S100C, V236C, V336I
B10: P1-Arg + S100C-V236C-V336L: Human CBG combining S100C-V236C disulphide and V336L on T349R background (protein, UniProt P08185 23-405, looked up, variant S100C V236C V336L T349R)
Corticosteroid-binding …: B1 Corticosteroid-binding … with S100C, V236C, V336L

Legend:
[1] = biological target: prostate specific antigen (PSA) (Homo sapiens, UniProt P07288); test: Protease cleavage assay (SDS-PAGE) with prostate specific antigen; type: biochemical; details: incubation 2-72 hours
From the text: (§1) Reactive loop cleavage is marked by a characteristic 4 kDa change in molecular weight following release of a peptide when the R-state CBG is unfolded, such as when it is subjected to the denaturing conditions of an SDS-PAGE [14], [22]. We used this as a convenient means by which to check the engineered protein's protease specificity and, as a corollary, its site specificity.

[2] = biological target: T1, human neutrophil elastase; test: Protease cleavage assay (SDS-PAGE) with human neutrophil elastase; type: biochemical; details: protease:CBG 1:100, 37°C
Description: as §1, with “To determine if a particular target protease is able to cleave the reactive centre loop of an engineered CBG variant, the protease was incubated with CBG at a molar ratio of 1∶100 at 37°C for half an hour unless otherwise specified. Reactive” for “Reactive”

[3] = biological target: T2, thrombin (Homo sapiens, UniProt P00734); test: Protease cleavage assay (SDS-PAGE) with thrombin; type: biochemical; details: protease:CBG 1:100, 37°C, half an hour
T2 construct: causes the zymogen, prothrombin, to be cleaved to produce enzymatically-active thrombin
Description: as §1, with “To determine if a particular target protease is able to cleave the reactive centre loop of an engineered CBG variant, the protease was incubated with CBG at a molar ratio of 1∶100 at 37°C for half an hour unless otherwise specified. Reactive” for “Reactive”

[4] = parameters: method as in PMID 23783094; details: recombinantly expressed wild type CBG; cited from earlier work
[5] = Fluorimetric titration of L-T4-thyroxine-6-carboxyfluorescein with engineered CBG; type: binding; details: for Kd: 25°C
Description: (§2) Fluorescence spectroscopy was used to study the CBG-ligand interactions. Experiments were performed on an LS55 120V fluorescence spectrometer (Perkin Elmer), and the data were read and recorded using their proprietary FL WinLab software. For binding studies of CBG with cortisol, the excitation wavelength was set at 280 nm and the emission was detected at 350 nm, with a 315 nm cut-off filter used to prevent the excitation laser from leaching into the emission channel. For the binding studies of engineered CBG with L-T4-thyroxine-6-carboxyfluorescein, the excitation wavelength was set at 495 nm and emission was recorded at 520 nm whilst applying a 515 nm cut-off filter.
L-T4-thyroxine-6-carboxyfluorescein was previously synthesised and purified as a 1.09 µM solution with acetonitrile as its solvent. This was diluted into a 5 nM solution with a buffer containing 10 mM Tris-HCl, pH 7.4, 150 mM NaCl, 1 mM EDTA, 0.1% v/v PEG 8000. Aliquots of the engineered CBG were titrated into 800 µl of this solution, and increments in fluorescence signal were monitored.
(§3) In both cases, the data were fitted using Prism 5 (GraphPad Software) to the following equation to obtain the dissociation constant, Kd: [drawing 2] (2) where ΔF is the fluorescence change, ΔFM is the maximum change in fluorescence signal, [L]t is the total concentration of ligand added and [E]t is the total protein concentration.

[6] = Fluorimetric titration (intrinsic fluorescence quenching) of CBG with cortisol; type: binding; details: for Kd / Fold change in Kd (cortisol) on reactive centre loop cleavage, S to R: physiological temperature (37°C); for Fold change in Kd (cortisol) on reactive centre loop cleavage, S to R: disulphide mutants in absence of TCEP
Description: CBG is known to bind cortisol with a one-to-one stoichiometry, [19]. Therefore, the dissociation constant, which is a measure of binding affinity, is given by the following equation: [drawing 1] (1) where [E]f is the concentration of free CBG, [L]f is the concentration of free ligand, and [E·L] is the concentration of the CBG-ligand complex.
as §2
The cortisol stock solution was prepared by dissolving lyophilised cortisol (Sigma Aldrich) in 80% ethanol to make a 500 µM solution, which was then diluted with water to make solutions of 20, 40 and 80 µM, with water being used as a negative control. Aliquots of the ligand solutions were then titrated into 800 µl of a 200 nM solution of CBG made by diluting the protein stock with a buffer containing 10 mM Tris-HCl, pH 7.4, 150 mM NaCl, 1 mM EDTA, 0.1% v/v PEG 8000, and the decrease in fluorescence due to quenching was measured.
as §3

[7] = Biolayer interferometry of CBG on immobilised cortisol (ForteBio Octet Red); type: binding; details: CBG 0-10000 nM
Description: Biolayer interferometry was carried out on a ForteBio Octet Red apparatus (ForteBio, Menlo Park, California, USA) to determine binding affinity where fluorescence quenching experiments would not work due to mutation of Trp 371, which is the main source of intrinsic fluorescence in the binding pocket. The system uses a change in interference pattern of reflected light to detect the change in optical thickness of the sensor tip. Cortisol was immobilised on the biosensor tip surface by forming an adduct of hydrocortisone 21-hemisuccinate and a pentylamine-biotin linker through an amide bond, then allowing the biotin moiety on this cortisol adduct to bind to the streptavidin-conjugated biosensor tip. The cortisol-conjugated sensors were immersed into wells of a shaking microtitre plate containing solutions of CBG at 0, 200, 500, 1000, 2500, 5000 and 10000 nM concentrations in a 10 mM Tris-HCl, pH 7.4, 150 mM NaCl, 1 mM EDTA, 0.1 mg/ml bovine serum albumin buffer, and analysed against an internal reference.

[8] = intact S-state, read-out: Kd for cortisol, S (uncleaved) conformation
[9] = reactive centre loop-cleaved R-state, read-out: Kd for cortisol, R (cleaved) conformation

prostate specific antigen (PSA), sequence (P07288 25-261): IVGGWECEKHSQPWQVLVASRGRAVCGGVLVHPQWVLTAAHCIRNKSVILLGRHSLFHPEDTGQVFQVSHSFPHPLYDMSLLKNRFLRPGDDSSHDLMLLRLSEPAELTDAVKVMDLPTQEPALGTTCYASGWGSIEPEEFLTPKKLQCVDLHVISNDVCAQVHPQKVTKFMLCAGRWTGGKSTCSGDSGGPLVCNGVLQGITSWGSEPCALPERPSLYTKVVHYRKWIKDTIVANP

Row | Molecule | Kd [6, 8] | Fold change in Kd (cortisol) on reactive centre loop cleavage, S to R [6] | Kd [6, 9] | also measured
1 | SALLSSDI: CBG variant with reactive centre loop segment STGVTLNL mutated to SALLSSDI (PSA substrate) (EEGVDTAGSALLSSDITSKPII) |  |  |  | Cleavage of reactive centre loop by PSA [1]: cleavage of their respective reactive centre loops
2 | B1 |  |  |  | Cleavage by human neutrophil elastase [2]: further engineering would be required to remove elastase cleavage; Cleavage of reactive centre loop by thrombin [3]: same susceptibility to cleavage by thrombin as the CBG-antitrypsinPittsburgh chimera; Cleavage of reactive centre loop by thrombin ([3]; listed as CBG-Thr349Arg): successfully cleaved by thrombin
3 | B2 | 279 ± 18 nM | 2.6 fold | 734 ± 48 nM | Cleavage of reactive centre loop by PSA [1]: no evidence of reactive centre loop cleavage; Fold decrease in affinity for cortisol upon cleavage of reactive centre loop [4]: 2.6 fold; Affinity for L-thyroxine-6-carboxyfluorescein [5]: no affinity; Cleavage of reactive centre loop by thrombin [3]: remained unreactive
4 | B3 |  |  |  | Affinity for cortisol by biolayer interferometry [7]: no detectable affinity for cortisol
5 | B4 |  |  |  | Affinity for cortisol by biolayer interferometry [7]: no measurable affinity for cortisol; Kd [5]: 840 nM
6 | B5 |  |  |  | Kd [5]: 0.73 nM
7 | B6 | 295 ± 44 nM | 8.2 fold | 2420 ± 200 nM | 
8 | B7 | 326 ± 46 nM | 10 fold | 3420 ± 440 nM | 
9 | B8 | 278 ± 64 nM | 6.5 fold | 1800 ± 49 nM | Change in cortisol binding affinity after reactive loop cleavage in presence of TCEP ([6]; 37°C, reducing agent TCEP present): very similar to that of wild-type CBG
10 | B9 | 297 ± 40 nM | 7.6 fold | 2260 ± 320 nM | 
11 | B10 | 252 ± 17 nM | 6.4 fold | 1600 ± 320 nM | 
